Test results as given in publication PMC11920956.

Tests used:
Tyr16 (position 16, …-) = assay: potentiometry; settings: 298 K; 0.1 M NaClO4; none (4 mM HClO4, 0.5 mM peptide); free peptide, no metal
[1] = biological target: Lys4 (position 4, --VERKEG---); assay: potentiometry; settings: 298 K, 0.1 M NaClO4

Protein	pKa (Tyr16 (position 16, …-))	pKa ([1]; none (4 mM HClO4, 0.5 mM peptide), free peptide, no metal)	pKa ([1]; none (4 mM HClO4, 0.5 mM peptide, Mohr's salt as Fe(II) source), Fe(II) present, Fe(II):L = 1:1.1, step [FeLH-3]2- to [FeLH-4]3- of the 1:1 Fe(II):L2 complex)
IMRGEATPFVMELPVYHVPH [L1, peptide model of the Core CFeoB region of FeoB (residues 477-496) (Escherichia coli K12)]	9.67	–	–
VERKEG	–	9.92	9.87
